Literature values as cited in patent US10744082B2, “Compositions for treatment of xerostomia and for tooth treatment” (3 IN 1 DENTAL PLLC, priority 2013, dated 2020).

System: lean meat
Conditions: usual grade of papain

B1: Papain (protein, UniProt P00784 134-345, looked up)
Papain: IPEYVDWRQKGAVTPVKNQGSCGSCWAFSAVVTIEGIIKIRTGNLNEYSEQELLDCDRRSYGCNGGYPWSALQLVAQYGIHYRNTYPYEGVQRYCRSREKGPYAAKTDGVRQVQPYNEGALLYSIANQPVSVVLEAAGKDFQLYRGGIFVGPCGNKVDHAVAAVGYGPNYILIKNSWGTGWGENGYIRIKRGTGNSYGVCGLYTSSFYPVKN
notes: Protease enzyme; white or grayish-white, slightly hygroscopic powder, designated USP
- potency: weight of lean meat digested: ~35 times its weight
